Assay in all cases: BLI Octet 384RED (Example 8), Sortilin construct in solution
Experiment [1] deals with T1, Sortilin SORTECDBAP_hB01-05 (human/tetraodon chimera).
T1 construct: Shuffle construct
T1 chain: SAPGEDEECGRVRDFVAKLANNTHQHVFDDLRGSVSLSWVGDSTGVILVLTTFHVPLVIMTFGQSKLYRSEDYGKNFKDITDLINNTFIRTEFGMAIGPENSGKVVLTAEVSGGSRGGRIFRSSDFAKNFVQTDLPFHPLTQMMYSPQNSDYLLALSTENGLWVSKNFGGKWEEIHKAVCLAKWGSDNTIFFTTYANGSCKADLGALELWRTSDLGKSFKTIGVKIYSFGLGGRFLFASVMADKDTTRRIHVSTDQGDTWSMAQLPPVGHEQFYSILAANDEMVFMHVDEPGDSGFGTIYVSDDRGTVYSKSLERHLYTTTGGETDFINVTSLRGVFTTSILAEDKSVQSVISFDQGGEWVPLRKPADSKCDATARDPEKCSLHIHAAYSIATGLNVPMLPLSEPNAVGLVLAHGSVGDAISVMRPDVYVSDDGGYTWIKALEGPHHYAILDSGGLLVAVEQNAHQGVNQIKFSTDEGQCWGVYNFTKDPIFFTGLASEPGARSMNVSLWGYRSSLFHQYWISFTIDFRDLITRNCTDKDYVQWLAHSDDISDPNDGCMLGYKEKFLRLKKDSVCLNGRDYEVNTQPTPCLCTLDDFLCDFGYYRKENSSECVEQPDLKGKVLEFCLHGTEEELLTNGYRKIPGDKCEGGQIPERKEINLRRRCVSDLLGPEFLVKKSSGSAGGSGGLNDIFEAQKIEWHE
The procedure:
(§1) Binding kinetics of anti-Sortilin HuMab antibodies to Sortilin were determined using Octet 384RED (Fortebio, Menlo Park, USA). HuMab solutions of 2 μg/ml were made by dilution in sample diluent (ForteBio, art. No. 18-5028). Prot A sensors (ForteBio, art. no. 18-0004) were prewetted with kinetics buffer (1:10 sample diluent in PBS) for at least 600 seconds. Subsequently sensors were immobilized with HuMab solution for 600 seconds. A baseline response was obtained by dipping in kinetics buffer for 120 seconds. Association of SORTECD constructs was performed during a 1000 seconds incubation. This was followed by dissociation in kinetics buffer for 100 seconds. After dissociation, sensors were regenerated (10 mM Glycine pH 1.0) and neutralized (kinetics buffer) 3 times for 5 seconds. […] A molecular weight of 76.8 kDA was used for SORTECDHis. Data was fitted with ForteBio Analysis 6.4 software, using a global full fit.

Experiment [2] has as its target T2, Sortilin SORTECDBAP_tetra (tetraodon).
T2 construct: Fully tetraodon Sortilin ECD with BAP tag; also called tetraodon Sortilin
T2 chain: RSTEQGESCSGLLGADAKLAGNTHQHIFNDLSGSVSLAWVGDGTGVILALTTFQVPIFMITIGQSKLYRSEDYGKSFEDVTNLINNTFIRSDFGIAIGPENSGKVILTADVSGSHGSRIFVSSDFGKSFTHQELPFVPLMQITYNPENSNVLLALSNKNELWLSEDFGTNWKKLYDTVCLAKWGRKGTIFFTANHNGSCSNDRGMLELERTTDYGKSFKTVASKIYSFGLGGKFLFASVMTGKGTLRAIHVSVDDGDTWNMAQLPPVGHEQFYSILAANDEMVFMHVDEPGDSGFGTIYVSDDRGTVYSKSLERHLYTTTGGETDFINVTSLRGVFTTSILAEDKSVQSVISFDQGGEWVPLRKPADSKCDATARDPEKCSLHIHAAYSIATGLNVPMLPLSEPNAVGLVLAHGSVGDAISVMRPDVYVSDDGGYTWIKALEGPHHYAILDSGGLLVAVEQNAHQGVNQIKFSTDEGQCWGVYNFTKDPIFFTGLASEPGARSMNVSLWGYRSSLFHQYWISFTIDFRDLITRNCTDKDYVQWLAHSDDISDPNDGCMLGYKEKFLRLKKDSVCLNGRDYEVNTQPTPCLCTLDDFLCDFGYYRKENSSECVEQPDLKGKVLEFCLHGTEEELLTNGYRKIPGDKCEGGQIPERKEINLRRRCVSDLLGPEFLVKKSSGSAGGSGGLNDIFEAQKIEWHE
The procedure:
as §1

A further experiment has as its target T3, Sortilin hSORTECDBAP (human, UniProt Q99523 78-755, biotinylated on the BAP tag by co-expression of biotin ligase).
T3 construct: Soluble extracellular region (ECD, aa 1-755) with BAP tag
T3 sequence: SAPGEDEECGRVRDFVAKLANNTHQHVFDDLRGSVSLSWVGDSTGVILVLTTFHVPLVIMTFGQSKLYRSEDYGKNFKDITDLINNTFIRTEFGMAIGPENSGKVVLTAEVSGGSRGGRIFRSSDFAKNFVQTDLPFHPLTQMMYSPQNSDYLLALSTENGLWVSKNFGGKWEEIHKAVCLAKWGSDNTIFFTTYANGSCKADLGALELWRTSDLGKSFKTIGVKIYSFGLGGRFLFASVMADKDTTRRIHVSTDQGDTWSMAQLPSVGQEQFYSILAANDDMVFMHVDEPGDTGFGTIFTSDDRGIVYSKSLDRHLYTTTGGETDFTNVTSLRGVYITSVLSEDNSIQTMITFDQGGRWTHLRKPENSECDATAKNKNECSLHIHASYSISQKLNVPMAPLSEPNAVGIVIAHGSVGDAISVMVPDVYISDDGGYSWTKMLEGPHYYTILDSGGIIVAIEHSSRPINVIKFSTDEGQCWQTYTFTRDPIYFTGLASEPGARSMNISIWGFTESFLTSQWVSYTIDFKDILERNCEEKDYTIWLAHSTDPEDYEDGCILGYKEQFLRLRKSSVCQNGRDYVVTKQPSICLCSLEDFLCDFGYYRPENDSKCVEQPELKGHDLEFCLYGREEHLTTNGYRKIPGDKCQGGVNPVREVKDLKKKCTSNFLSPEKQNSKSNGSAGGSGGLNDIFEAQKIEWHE
How it is done:
as §1

B1: Antibody 1F2 (antibody, V domains shown)
VH: EVQLVESGGDLVKPGGSLKLSCAASGFTFSSYGMSWVRQTPDKRLEWVAIISSGGSYTHYPDSVKGRFTISRDNAKNTLYLQMSSLKSEDTAMYYCARLCGPLCSGYWGQGTSVTVSS
VL: QAVVTQESALTTSPGETVTLTCRSSTGAVTTSNYANWVQEKPDHLFTGLIGGTNNRAPGVPARFSGSLIGDKAALTITGAQTEDEAIYFCALWYSNHFWVFGGGTKLTVLG
notes: Mouse anti-human Sortilin monoclonal antibody from hybridoma (BALB/c), purified on protein G; Assigned to the D Region; also called 1F2F4; Ab 1F2
As a reminder, the EC50 is the concentration giving half of the maximal effect. A low value points to an effect from little substance. For B1, the binding result in experiment [1] and in experiment [2] was “no binding (tested: 10 µg/ml construct)” throughout. The molecule further displayed a 50% effective concentration (EC50) in the experiment with Sortilin hSORTECDBAP of 1.56 ng/mL.

B2: Antibody 5E1 (antibody, V domains shown)
VH: EVHLVESGGDLVNPGGSLKLSCEASGFIFSIYGMSWVRQTPDKRLEWVAMISSGGIYTQYPDSVKGRFTISRDNAKNTLYLQMSGLKSEDTGTYHCTRHDDSWFAYWGQGTLVTVSA
VL: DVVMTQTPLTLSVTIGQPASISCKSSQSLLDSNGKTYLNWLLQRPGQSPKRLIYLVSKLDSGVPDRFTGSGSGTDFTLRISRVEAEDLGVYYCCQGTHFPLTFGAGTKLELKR
notes: Mouse anti-human Sortilin monoclonal antibody from hybridoma (BALB/c), purified on protein G; Assigned to the D Region; also called 5E1F6; Ab 5E1
Take B2: the binding result in experiment [1] and in experiment [2] was “no binding (tested: 10 µg/ml construct)” each time. In the experiment with Sortilin hSORTECDBAP, it took 1.14 ng/mL to reach a half-maximal effect (EC50).

The values are drawn from patent US20230159643A1 (H LUNDBECK A S, published 2023).
